Experimental data taken from patent publication US20100210517A1 (RAPTOR PHARMACEUTICAL, published 2010).

Experiments:
LRP2 CR89 = molecular target: T1, LRP2 CR89 (human, UniProt P98164 1025-1102); test: solid-phase assay on coated CR protein, each ligand at 80 nM, blank-corrected absorbance
T1 construct: domain: CR89; also called YVWR; L2 CR89; not shown: N-terminal hexahistidine and S-peptide tags of pET30(+)a
Procedure: (§1) Samples were tested twice, in duplicate, and values combined. Means and standard deviations were then calculated. Blank values obtained from wells incubated in the absence of ligand were used to correct absorbance data.
(§2) Solid phase binding assays-Purified, refolded CR protein (1 μg) was bound to Nunc Maxisorp™ 96-well plates in TBS pH 8 supplemented with 5 mM CaCl₂ (TBSC) overnight at 4° C. Wells were washed with TBSC and then blocked with TBSC containing 2% bovine serum albumin (BSA). […] Control wells contained no added ligand. As an additional control, to determine whether the absence of calcium affected binding, 10 mM EGTA was included in the incubation medium for some samples. […] Excess primary antibody was removed and wells washed before incubation with the secondary antibody, HRP-conjugated goat anti rabbit IgG (Bio-Rad). After washing, TMB substrate solutions (Bio-Rad) were added to detect HRP. Color development was stopped with 1N HCl. Absorption at 450 nm was measured with a microplate spectrophotometer (Molecular Devices). Data were plotted and Kd values derived by non-linear regression with the assumption of single-site binding (GraphPad Prism).

LRP2 CR34-36 = molecular target: T2, LRP2 CR34-36 (human, UniProt P98164 3841-3963); test: as above
T2 construct: domain: CR34-36; not shown: N-terminal hexahistidine and S-peptide tags of pET30(+)a
T2 sequence (P98164 3841-3963): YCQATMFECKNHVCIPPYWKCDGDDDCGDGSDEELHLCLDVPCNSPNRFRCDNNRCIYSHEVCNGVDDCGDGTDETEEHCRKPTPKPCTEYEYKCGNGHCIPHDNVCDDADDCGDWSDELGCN
Procedure: as §1, §2

LRP2 CR3536 = molecular target: T3, LRP2 CR3536 (human, UniProt P98164 3882-3963); test: as above
T3 construct: domain: CR3536; not shown: N-terminal hexahistidine and S-peptide tags of pET30(+)a
T3 sequence (P98164 3882-3963): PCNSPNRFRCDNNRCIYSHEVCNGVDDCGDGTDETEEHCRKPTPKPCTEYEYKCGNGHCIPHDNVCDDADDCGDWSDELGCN
Procedure: as §1, §2

LRP2 CR2728 = molecular target: T4, LRP2 CR2728 (human, UniProt P98164 3552-3631); test: as above
T4 construct: domain: CR2728; Its cloning is not described in the methods; not shown: N-terminal hexahistidine and S-peptide tags of pET30(+)a
T4 sequence (looked up): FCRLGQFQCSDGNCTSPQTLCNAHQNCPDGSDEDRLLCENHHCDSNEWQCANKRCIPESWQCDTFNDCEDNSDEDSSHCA
Procedure: as §1, §2

LRP2 CR3031 = molecular target: T5, LRP2 CR3031 (human, UniProt P98164 3677-3755); test: as above
T5 construct: domain: CR3031; Its cloning is not described in the methods; not shown: N-terminal hexahistidine and S-peptide tags of pET30(+)a
T5 sequence (P98164 3677-3755): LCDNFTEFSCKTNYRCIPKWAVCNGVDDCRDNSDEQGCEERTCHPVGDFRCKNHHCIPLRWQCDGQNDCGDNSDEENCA
Procedure: as §1, §2

[1] = molecular target: T6, recombinant human LRP1 ligand binding cluster II (amino acids 786-1165, C-terminal Fc) (human); test: solid-phase binding assay, receptor coated on plate, streptavidin-HRP detection, EDTA-subtracted
T6 construct: range 786-1165; Bought from R&D Systems, NS0-expressed; also called rhLRP1 cluster II; hrLRP1 cluster II
T6 sequence (Q07954 786-1165): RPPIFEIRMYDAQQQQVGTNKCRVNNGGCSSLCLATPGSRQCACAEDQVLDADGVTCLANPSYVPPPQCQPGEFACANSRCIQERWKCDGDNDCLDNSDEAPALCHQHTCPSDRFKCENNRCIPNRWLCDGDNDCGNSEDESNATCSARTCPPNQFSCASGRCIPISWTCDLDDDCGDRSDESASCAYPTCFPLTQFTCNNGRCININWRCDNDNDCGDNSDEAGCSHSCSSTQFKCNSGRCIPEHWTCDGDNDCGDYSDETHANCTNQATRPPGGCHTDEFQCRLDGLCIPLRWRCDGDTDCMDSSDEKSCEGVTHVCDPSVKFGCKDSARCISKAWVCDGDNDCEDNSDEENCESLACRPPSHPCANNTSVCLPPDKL
Procedure: (§3) Solid phase binding assays were carried out as follows. Recombinant murine VLDLR ectodomain (aa 1-798, C-terminal hexahistidine, 1 μg) or rhLRP1 cluster II (aa 786-1165, C-terminal Fc, 1 μg) were bound to Nunc Maxisorp™ 96-well plates in TBS pH 8 supplemented with 5 mM CaCl₂ (TBSC) overnight at 4° C. Wells were washed with TBSC and then blocked with TBSC containing 2% BSA. Peptides were then incubated with the immobilized receptor at a range of concentrations for 2 hours in the above blocking buffer supplemented with 0.05% Tween-20 at room temperature. Identical binding reactions were done in the presence of 50 mM EDTA to provide a measure of non-specific binding. Control wells contained no added peptide. […] Excess streptavidin-HRP or primary antibody was removed and wells washed before incubation with the secondary antibody, when necessary, HRP-conjugated goat anti rabbit IgG (Bio-Rad). Color was developed using TMB reagents (BioRad). Absorption at 450 nm was measured with a microplate spectrophotometer (Molecular Devices). Absorption obtained in the presence of EDTA was subtracted from absorption obtained in the presence of calcium prior to analysis. Data were plotted and Kd values derived by non-linear regression with the assumption of single-site binding (GraphPad Prism).

[2] = molecular target: T7, recombinant mouse VLDLR ectodomain (amino acids 1-798, C-terminal hexahistidine) (mouse, UniProt P98156 28-798); test: as above
T7 construct: range 1-798; Bought from R&D Systems, NS0-expressed; The printed range starts at 1 and so may count a signal peptide; also called rmVLDLR ectodomain; mVLDLR
T7 sequence (P98156 other isoform, or with tags, fused parts or gaps limits assumed, form in doubt): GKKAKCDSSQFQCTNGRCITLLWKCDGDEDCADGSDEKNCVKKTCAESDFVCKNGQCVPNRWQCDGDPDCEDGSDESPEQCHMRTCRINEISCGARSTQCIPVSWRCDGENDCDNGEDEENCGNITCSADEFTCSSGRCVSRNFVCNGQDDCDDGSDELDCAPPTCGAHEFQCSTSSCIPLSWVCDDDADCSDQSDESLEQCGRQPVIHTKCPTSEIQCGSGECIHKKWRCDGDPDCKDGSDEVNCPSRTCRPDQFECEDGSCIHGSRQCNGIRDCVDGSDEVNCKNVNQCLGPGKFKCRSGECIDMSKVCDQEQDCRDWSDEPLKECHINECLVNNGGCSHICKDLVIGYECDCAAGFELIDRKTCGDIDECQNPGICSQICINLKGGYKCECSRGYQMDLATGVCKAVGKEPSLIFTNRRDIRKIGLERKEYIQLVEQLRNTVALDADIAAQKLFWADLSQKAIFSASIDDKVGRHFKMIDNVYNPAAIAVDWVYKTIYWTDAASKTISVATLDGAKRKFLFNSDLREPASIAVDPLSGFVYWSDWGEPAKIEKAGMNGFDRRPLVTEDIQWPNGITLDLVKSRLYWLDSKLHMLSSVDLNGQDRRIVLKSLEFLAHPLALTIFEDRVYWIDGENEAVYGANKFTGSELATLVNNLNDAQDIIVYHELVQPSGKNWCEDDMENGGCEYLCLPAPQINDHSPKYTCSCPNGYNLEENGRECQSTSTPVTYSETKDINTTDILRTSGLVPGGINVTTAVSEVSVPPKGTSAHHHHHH
Procedure: as §3

[3] = molecular target: T6, recombinant human LRP1 ligand binding …; test: competition ELISA, inhibition of RAP d3 (2 nM) binding to coated LRP1 cluster II-Fc
Procedure: (§4) Solid phase binding assays were performed using recombinant human LRP1 cluster II (amino acids 786-1165, with C-terminal Fc tag, 1 μg, R&D Systems, Minneapolis, Minn.) to coat Nunc MAXISORP™ 96-well plates in TBS pH 8 supplemented with 5 mM CaCl₂ (TBSC) overnight at 4° C. Data was generated by ELISA assay. Wells were washed with TBSC and blocked with TBSC containing 2% BSA. […] Control wells contained no added inhibitor. Wells were washed with TBS supplemented with 5 mM CaCl₂ and 0.05% Tween-20. Bound ligand was detected with either anti-S-peptide-HRP conjugate (Abcam, Cambridge, Mass.), anti-α-2-macroglobulin-HRP or anti-PAI-1-HRP. Excess HRP conjugate was removed and wells washed. Color was developed using TMB reagents (BioRad, Hercules, Calif.). Absorption at 450 nm was measured with a microplate spectrophotometer (Molecular Devices, Palo Alto, Calif.).

[4] = molecular target: T6, recombinant human LRP1 ligand binding …; test: inhibitor pre-incubated with coated LRP1 cluster II-Fc, washed, then RAP d3 added; inhibition of RAP d3 binding
Procedure: as §4

[5] = molecular target: T6, recombinant human LRP1 ligand binding …; test: competition ELISA on coated LRP1 cluster II-Fc; competitor called the heterologous ligand (FIG. 14C; the figure legend names uPA-PAI-1)
Procedure: as §4

[6] = molecular target: T8, 8D6 CR12 (CR pair from FDC-8D6 antigen, CD320) (human, UniProt Q9NPF0 53-168); test: solid-phase binding assay, CR protein coated on plate
T8 construct: also called FDC-8D6 antigen pair; target CR pair from FDC-8D6 antigen; not shown: N-terminal hexahistidine and S-peptide tags of pET30(+)a
T8 sequence (Q9NPF0 other isoform, or with tags, fused parts or gaps): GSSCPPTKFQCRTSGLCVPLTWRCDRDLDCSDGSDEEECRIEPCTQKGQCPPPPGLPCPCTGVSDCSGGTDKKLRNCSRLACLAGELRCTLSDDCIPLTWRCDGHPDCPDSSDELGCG
Procedure: Control wells contained no added ligand. As an additional control, to determine whether the absence of calcium affected binding, 10 mM EGTA was included in the incubation medium for some samples. […] Excess primary antibody was removed and wells washed before incubation with the secondary antibody, HRP-conjugated goat anti rabbit IgG (Bio-Rad). After washing, TMB substrate solutions (Bio-Rad) were added to detect HRP. Color development was stopped with 1N HCl. Absorption at 450 nm was measured with a microplate spectrophotometer (Molecular Devices). Data were plotted and Kd values derived by non-linear regression with the assumption of single-site binding (GraphPad Prism).

[7] = molecular target: T8, 8D6 CR12 (CR pair from FDC-8D6 antigen, …); test: solid-phase assay on the coated FDC-8D6 antigen CR pair, relative binding
MAT CR12 = molecular target: T9, MAT CR12 (human, UniProt Q9Y5Y6 452-524); test: binding of truncated MatRAP1 forms to MAT CR12, relative signal under isomolar conditions
T9 construct: also called ST14 CR12; matriptase CR12
T9 sequence: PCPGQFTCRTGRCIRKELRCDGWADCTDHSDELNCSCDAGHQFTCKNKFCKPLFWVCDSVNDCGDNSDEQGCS
Procedure: as §2

T1 sequence (P98164 1025-1102): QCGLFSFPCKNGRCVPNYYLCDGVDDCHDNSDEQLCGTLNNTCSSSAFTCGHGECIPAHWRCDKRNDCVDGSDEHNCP

B1: MatRAP2 d3 (ligand)
chain: LDRLRRVSHQGYSTEAEFEEPRVIDLWDLAQPANLTDKGLEAFREGLKHFLAKIEPHNHYQKQLETVREPLRYAESVGDGERVSRSHEKYALLEGRTRELGYTVKKHLQDLFGRISRAR
notes: Selected by phage panning on MAT CR34; also called RAP vMB; not shown: N-terminal hexahistidine and S-peptide tags of pET30(+)a
binding result (LRP2 CR89): no binding (tested: 80 nM) | binding result (LRP2 CR34-36): no binding (tested: 80 nM) | binding result (LRP2 CR3536): no binding (tested: 80 nM) | binding result (LRP2 CR2728): no binding (tested: 80 nM) | binding result (LRP2 CR3031): no binding (tested: 80 nM)

B2: mRAPc (peptide)
peptide: CGFREELKHFEAKIEKHNHYQKQLEIAHEKLRHAESVGDGERVSRSREKHALLEGRTKELGYTVKKHLQDLSGGC
modifications: N-terminal biotin-GGSGG; intramolecular disulfide between C241 and C315 (mature RAP numbering)
notes: Synthetic; also called mRAPc peptide; monomeric peptide
Kd [1]: 10 nM | Kd [2]: 5 nM | EC50 [3]: 32 nM | EC50 [4]: 17 nM | EC50 [5]: 7 nM

B3: 320RAP1 truncated variant (identical truncations as MatRAP1, amino acids 243-313) (ligand)
chain: FREELKHFEAKIESHNHYQKQLEIAHESMRHAESVGYGERMSRSREKHALLEGRTKELGYTVTMHLQDLSG
notes: also called truncated form of 320RAP1; not shown: N-terminal hexahistidine and S-peptide tags of pET30(+)a
fold improvement in affinity against the full-length variant [6]: 3.5 fold

B4: tag-free RAP d3 peptide (amino acids 201-319 of mature human RAP, C-terminal cysteine linked to biotin) (ligand)
chain: LDRLRRVSHQGYSTEAEFEEPRVIDLWDLAQSANLTDKELEAFREELKHFEAKIEKHNHYQKQLEIAHEKLRHAESVGDGERVSRSREKHALLEGRTKELGYTVKKHLQDLSGRISRARC
modifications: C-terminal cysteine linked to maleimide-PEO2-biotin
notes: Bacterially expressed, from GeneScript; lacks HNEL; also called full-length RAP d3
Kd [1]: 8 nM | Kd [2]: 1 nM

B5: 320RAP1 (full-length d3 variant) (ligand)
chain: LDRLRRVSHQGYSTEAEFEEPRVIDLWDLAQSANLTDKELEAFREELKHFEAKIESHNHYQKQLEIAHESMRHAESVGYGERMSRSREKHALLEGRTKELGYTVTMHLQDLSGRISRAR
notes: Selected by phage panning on the CR pair of FDC-8D6 antigen; not shown: N-terminal hexahistidine and S-peptide tags of pET30(+)a
EC50 (read off the curve) [7]: ~7 nM

B6: MatRAP1 d3 (ligand)
chain: LDRLRRVSHQGYSTEAEFEEPRVIDLWDLAQSANLTDKELEAFREELKHFGAKIERHNHYQKQLEIAHEWLRHAESVGDGERVSRSREKHALLEGRTKELGYTVKKHLQDLSGRISRAR
notes: Selected by phage panning on MAT CR23; also called RAP vMA; not shown: N-terminal hexahistidine and S-peptide tags of pET30(+)a
binding result (LRP2 CR89): no binding (tested: 80 nM) | binding result (LRP2 CR34-36): no binding (tested: 80 nM) | binding result (LRP2 CR3536): no binding (tested: 80 nM) | binding result (LRP2 CR2728): no binding (tested: 80 nM) | binding result (LRP2 CR3031): no binding (tested: 80 nM) | fnctn (relative binding signal under isomolar conditions) (MAT CR12): 0.22
